Changes are numbered by the printed parent chain. Each block holds one molecule with its values, some of them ahead of it.
Columns and labels:
ROR1 negative MCF7 cells = assay: In vitro cell killing of ROR1 ADCs on MCF7; assay type: cell-based
Protocol: (§1) Anti-ROR1 antibody was conjugated to different linker-warheads described herein at different DARs and the cell killing activity of the ADCs were evaluated on ROR1 positive Ntera-2 cell and ROR1 negative MCF7 cells.
(§2) Ntera-2 or MCF7 cell at 625 cells/25 μL were seeded in a 384-well flat bottom white polystyrene plate one day before the assay start. ADCs were formulated at 2× starting concentration. Filter sterilized samples were serial diluted (1:3) under sterile conditions and added onto cells in triplicates. Plates were cultured at 37° C. in a CO2 incubator for 120 hours. For cell viability measurement, 30 microliter of Cell Titer-Glo® reagent (Promega Corp, Madison, WI) was added into each well, and plates processed as per product instructions. Relative luminescence was measured on an ENVISION® plate reader (Perkin-Elmer; Waltham, MA). Relative luminescence readings were converted to % viability using untreated cells as controls. Data was fitted with non-linear regression analysis, using log (inhibitor) vs. response, variable slope, 4-parameter fit equation using GraphPad Prism.
(§3) To evaluate if the cell killing activity of anti-ROR1 ADCs is dependent on antibody binding to ROR1 expressed on cell surface, the same linker-warheads (LP3, LP4) were conjugated to an anti-GFP antibody and the cell killing of the anti-ROR1 and anti-GFP ADCs were evaluated in cell killing assays on ROR1 positive Ntera-2 cell and ROR1 negative MCF7 cells.

[1] = test system: ROR1-positive Ntera-2 cells co-cultured with PMBCS; assay: Ntera-2/PBMC co-culture: target cell killing and monocyte activation; assay type: cell-based
Protocol: ROR1-positive Ntera-2 cells were co-cultured with PMBCS at E:T=[…] and treated with Conjugate 46 or exatecan for 3 days. Live target cell count and monocyte activation were measured by FACS. […] FIG. 21A and FIG. 21B are graphs showing the percent of live target cells and monocyte activation in Ntera-2 cells following treatment with Conjugate 46 or exatecan compared to the un-conjugated antibody and an isotype control of Conjugate 46. […] Unconjugated anti-ROR1 antibody or a non-targeted ADC had no activity. […] Viability and calreticulin surface expression were measured and presented as a percentage compared to untreated cells.

[2] = test system: ROR1 positive Ntera-2 cell; assay: In vitro cell killing of ROR1 ADCs on Ntera-2; assay type: cell-based
Protocol: as §1, §2
as §3, with “cells. […]” for “cells.”

[3] = test system: ROR1-positive Ntera-2 cells; assay: Induction of immunogenic cell death markers (calreticulin FACS, HMGB1 ELISA); assay type: cell-based; conditions: 3 days treatment
Protocol: ROR1-positive Ntera-2 cells were treated with Conjugate 46 or exatecan for 3 days. Calreticulin on the cell surface was measured by FACS and HMGB1 in the cell culture medium were measured by ELISA. […] FIG. 20A and FIG. 20B illustrate calreticulin expression and HMGB1 release of Ntera-2 cells in the presence of Conjugate 46 or exatecan compared to the un-conjugated antibody and an isotype control of Conjugate 46.

ROR1 or ROR2 = assay: ROR2 cross-reactivity ELISA (ROR1/ROR2 signal ratio); assay type: binding; conditions: Table 11; SP34 light chain
Protocol: Antibodies were tested for their ability to bind to either ROR1 or ROR2 via ELISA. Briefly, 2 μg/mL of ROR1 or ROR2 (Acro Biosystems) were coated to 384-well polystyrene plates for 1 hr at 30° C. in 0.1 M bicarbonate pH8.9 buffer before they were washed and blocked with 2% BSA in PBST (PBS, 0.1% Tween20) for 1 hr. Antibody variants were diluted to 2.5 μg/mL and further serially diluted 3-fold before 30 μL was applied to the ELISA plates for binding (1 hr at 30° C.). Antibody binding was detected via HRP-conjugated anti-human Fc antibodies (Jackson Immunoresearch) and detection with SuperSignal ELISA Pico Chemiluminescent Substrate (Pierce). Cross-reactivity was reported as a ratio of ROR1-ELISA signal over ROR2-ELISA signal at the highest dilution tested.

human ROR1-Fz = target: T1, human ROR1-Fz (Homo sapiens, UniProt Q01973); assay: Biacore off-rate and kinetic analysis, ROR1-Fz; assay type: binding; conditions: Table 11; SP34 light chain
T1 construct: Frizzled (Fz, residues 165-305); His6 (C); purchased Acro Biosystems; host or cells: HEK293
Protocol: Anti-Fc polyclonal antibodies were immobilized onto a CMS chip (GE Life Sciences) using amine coupling chemistry (from Amine Coupling Kit, GE Life Sciences). The immobilization steps were carried out at a flow rate of 25 μL/min in 1×HBS-EP+buffer (GE Life Sciences; 10× Stock diluted before use). The sensor surfaces were activated for 7 min with a mixture of NHS (0.05 M) and EDC (0.2 M). The Anti-Fc antibodies were injected over all 4 flow cells at a concentration of 25 ug/ml in 10 mM sodium acetate, pH 4.5, for 7 min. Ethanolamine (1 M, pH 8.5) was injected for 7 min to block any remaining activated groups. An average of 12,000 response units (RU) of capture antibody was immobilized on each flow cell.
Off-rate and kinetic binding experiments were performed at 25° C. using 1×HBS-EP+buffer. Test and control antibodies were injected over the anti-Fc surface at concentrations of 5-10 μg/mL for 12 seconds at a flow rate of 10 μL/min on flow cells 2, 3 and 4, followed by a buffer wash for 30 seconds at the same flow rate. Kinetic characterization of antibody samples was carried out with a range of antigen concentrations from 1-100 nM and 1 injection of 0 nM antigen (for example, 100, 50, 25, 6.25, 1.56 and 0 nM). After capturing ligand (antibody) on the anti-Fc surface, the analyte (hROR1, Fz or Kr domains, Acro Biosystems, Delaware) was bound for 180 seconds, followed by a 600 second dissociation phase at a flow rate of 50 μL/min. Between each ligand capture and analyte binding cycle, regeneration was carried out using 2 injections of 10 mM Glycine pH 2.0 for 30 seconds at 30 μL/min, followed by a 30 second buffer wash step.
The data was fit with the Biacore T200 Evaluation software, using a 1-1 Langmuir binding model. KD (affinity, nM) was determined as a ratio of the kinetic rate constants calculated from the fits of the association and dissociation phases.
For anti-CD3-LC-containing IgGs that had detectable ROR1-binding in ELISA (1944-A07 and 1987-C05 variants), those antibodies were further tested for binding by surface plasmon resonance (SPR). Binding kinetics were assessed to the ROR1-frizzled domain (hROR1-Fz) or the ROR1-extracellular domain (hROR1) for 1944-A07 and 1987-C05 variants, respectively. Briefly, anti-ROR1 antibodies were captured via anti-human Fc polyclonal antibodies immobilized to a CM5 chip, and ROR1 recombinant proteins were flowed across the surface to assess binding kinetics. hROR1 or hROR1-Fz domain (Acro Biosystems, Delaware) binding was tested at 100, 50, 25, 6.25, 1.5625 nM. The data was fit with the Biacore™ T200 Evaluation software, using a 1-1 Langmuir binding model. KD (affinity, nM) was determined as a ratio of the kinetic rate constants calculated from the fits of the association and dissociation phases.

[4] = Differential scanning fluorimetry (protein thermal shift; TM1/TM2); assay type: physicochemical; conditions: Table 11; melting temperature of the Fab domain
Protocol: A protein thermal shift assay was carried out by mixing the protein to be assayed with an environmentally sensitive dye (SYPRO Orange, Life Technologies Cat #S-6650) in a phosphate buffered solution (PBS), and monitoring the fluorescence of the mixture in real time as it underwent controlled thermal denaturation. Protein solutions between 0.2-2 mg/mL were mixed at a 1-1 volumetric ratio with a 1-500 PBS-diluted solution of SYPRO Orange (SYPRO Orange stock dye is 5000× in DMSO). 10 μL aliquots of the protein-dye mixture were dispensed in quadruplicate in a 384-well microplate (Bio-Rad Cat #MSP-3852), and the plate was sealed with an optically clear sealing film (Bio-Rad Cat #MSB-1001) and placed in a 384-well plate real-time thermocycler (Bio-Rad CFX384 Real Time System). The protein-dye mixture was heated from […], at increments of 0.1° C. per cycle (˜1.5° C. per minute), allowing 3 seconds of equilibration at each temperature before taking a fluorescence measurement. At the end of the experiment, the transition melting temperatures (TM1 and TM2) were determined using the Bio-Rad CFX manager software. TM1 represents the melting temperature of the Fc domain. TM2 represents the melting temperature of the Fab domain.
For the thermal stability of an antibody, the first melting peak (Tm1) coincides with the unfolding of the CH2 domain (FC stability), while the second melting peak (Tm2) occurs upon unfolding of the Fab domain.

T1 sequence (Q01973 165-305): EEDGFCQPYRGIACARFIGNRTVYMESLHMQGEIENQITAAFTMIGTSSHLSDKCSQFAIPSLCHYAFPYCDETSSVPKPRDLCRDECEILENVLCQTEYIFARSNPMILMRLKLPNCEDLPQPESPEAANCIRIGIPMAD

Molecule: CC[C@@]1(O)C(=O)OCc2c1cc1n(c2=O)Cc2c-1nc1cc(F)c(C)c3c1c2[C@@H](N)CC3 [exatecan]
- EC50 (ROR1 negative MCF7 cells; Homo sapiens, MCF7, 120 h, read-out: MCF-7 EC50): 0.466 nM
- MCF-7 Span (ROR1 negative MCF7 cells; Table 13, ROR1 negative MCF7, 120 hours): 91%
- cell killing of target cells (live target cell count, FACS) ([1]; E:T=10.1, 3 days): induced potent cell killing of target cells
- monocyte activation (CD86 expression) ([1]; E:T=10.1, 3 days): potently induced monocyte activation
- calreticulin on the cell surface ([1]; concomitant with reduced viability): could be detected on the cell surface
- EC50 ([2]; NTERA2, 120 h, read-out: NTERA-2 EC50): 0.074 nM
- NTERA-2 Span ([2]; Table 13, ROR1 positive Ntera-2, 120 hours): 98%
- HMGB1 release into the cell culture medium (ELISA) [3]: induced
- calreticulin translocation to the cell surface (FACS) [3]: induced

B1: SRP2196-A07 (antibody, V domains shown)
VH: EVQLVESGGGLVQPGGSLRLSCAASGFNITGYYIHWVRQAPGKGLEWVGQISPNSGSTYYADSVKGRFTISADTSKNTAYLQMSSLRAEDTAVYYCARDSRRYVRGWDYWGQGTLVTVSS
VL: QAVVTQESALTTSPGETVTLTCRSSTGAVTTSNYANWVQEKPDHLFTGLIGGTNKRAPGVPARFSGSLIGDKAALTITGAQTEDEAIYFCALWYSNLWVFGGGTKLTVL
- ROR1/ROR2 ELISA ratio (ROR1 or ROR2): 16.3
- Biacore human ROR1-Fz ka (human ROR1-Fz): 186000 M⁻¹ s⁻¹
- Biacore human ROR1-Fz kd (human ROR1-Fz): 0.00064 s⁻¹
- TM2 (° C.) [4]: 74 °C

B3: SRP2196-B09 (antibody, V domains shown)
VH: B1 VH with G15E, G31E, Q50Y, S84N, G106S
VL: B1 VL
- ROR1/ROR2 ELISA ratio (ROR1 or ROR2): 27.3
- Biacore human ROR1-Fz ka (human ROR1-Fz): 130000 M⁻¹ s⁻¹
- Biacore human ROR1-Fz kd (human ROR1-Fz): 0.000427 s⁻¹
- TM2 (° C.) [4]: 72 °C

Further lines, with some results ahead:

- Biacore human ROR1-Fz ka (human ROR1-Fz): 124000 M⁻¹ s⁻¹
- Biacore human ROR1-Fz kd (human ROR1-Fz): 0.000945 s⁻¹
B2: SRP2196-B03 (antibody, V domains shown)
VH: B1 VH with V12A, Q50Y, S57A, Y59H, S84N, G106P, W107F
VL: B1 VL
- ROR1/ROR2 ELISA ratio (ROR1 or ROR2): 22.8
- TM2 (° C.) [4]: 71 °C

- Biacore human ROR1-Fz ka (human ROR1-Fz): 137000 M⁻¹ s⁻¹
- Biacore human ROR1-Fz kd (human ROR1-Fz): 0.000597 s⁻¹
B4: SRP2196-B11 (antibody, V domains shown)
VH: B1 VH with K43R, S57Y, S84N, V104I, G106S
VL: B1 VL
- ROR1/ROR2 ELISA ratio (ROR1 or ROR2): 19.1
- TM2 (° C.) [4]: 74 °C

- Biacore human ROR1-Fz ka (human ROR1-Fz): 150000 M⁻¹ s⁻¹
- Biacore human ROR1-Fz kd (human ROR1-Fz): 0.000568 s⁻¹
B5: SRP2196-A09 (antibody, V domains shown)
VH: B1 VH with S57A, Y59H, S84N, V104I, G106S
VL: B1 VL
- ROR1/ROR2 ELISA ratio (ROR1 or ROR2): 20.1
- TM2 (° C.) [4]: 75 °C

- Biacore human ROR1-Fz ka (human ROR1-Fz): 131000 M⁻¹ s⁻¹
- Biacore human ROR1-Fz kd (human ROR1-Fz): 0.000401 s⁻¹
B6: SRP2196-B01 (antibody, V domains shown)
VH: B1 VH with S57Y, A79T, S84N, G106S
VL: B1 VL
- ROR1/ROR2 ELISA ratio (ROR1 or ROR2): 17.2
- TM2 (° C.) [4]: 75 °C

Source: US12144869B2, “Anti-ROR1 antibody conjugates, compositions comprising anti ROR1 antibody conjugates, and methods of making and using anti-ROR1 antibody conjugates” (Sutro Biopharma, Inc., priority 2022, dated 2024)
